This is an account of results in the supplement of paper PMC12636428.

The subject of this data set is Saccharomyces cerevisiae. Kind of data set: transcriptional activation domain activity (GFP:mCherry ratio, weighted mean of sorted bins, harmonized to initial dataset scale) (arbitrary fluorescence ratio units); higher = stronger transcriptional activation. The settings on record: beta-estradiol 1 µM; induction time 4 h. An outline of the steps: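 Sorting into 8 bins by GFP:mCherry ratio followed a 4-hour hold at 30 °C after cultures were diluted 1:5 into SC with 1 uM beta-estradiol. The yeast diploids carried a GFP reporter and had barcoded protein tiles, fused to an estradiol-inducible synthetic transcription factor, integrated at URA3. Barcodes were then sequenced, and tiles with under 50 reads were removed. Activation activity is the read-weighted mean of bin median fluorescence, averaged across barcodes and linearly mapped onto the initial dataset scale.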

As for “MFHSIYLVVPSFHPSHALIVSFLFSLLRITLHLLLHFLVLYLLLCILFFWHPE”, the “transcriptional activation domain activity” value stood at 43100.

As to “MFIFFKILILILLINIISITSFRLGAMLHYCIGHWDCMGNYLDCVFRLGFLFI”, the “transcriptional activation domain activity” value was found to be 59000. The figure for “MFIFFLILLFYYYFYSTILFITYTLFSITQLSIFTLIPFLYYIIHYVTLLICS” is 41100. The figure for “MFIFLFFIHLLSHLCFILILILLFSILLFYVPVICLSTFFILFYHHHLLCTHQ” is 32200. The figure for “MFISICICSPYFQGCLAHTFYLFFYWGYLDCSLPPLVLQQRLLLWLLFDSFFI” is 46000; for “MFIVCLFLFMILHYSFMFYIFGSNYLLLLLLVLLSWWFFLLYFPTFIFLFGVL” it is 48700; for “MFIYVFRPCNCIHLFIICQFSLFLITLLLYLFDLFFQLPFLLCINLTFCVAMC” it is 64900.

Take “MFKCRNRYCYGSCVDLLCYLILGLDFLWIFCFLFFKRFFFRFLLSIPFSFFPS”: the “transcriptional activation domain activity” value was 64600. The figure for “MFKGSFFFSLTGFLFSLLFLFFYPLPCWGRDHFFCWGLECLFSLFLSWVLFTV” is 41100; for “MFKGTLLLVFFHYGWALFLDYCLWYIMISLCFWYRVCLPVLLLGFHVCCHLWC” it is 48500; for “MFKSFLGHSDQNTFFFFVLLLLLLCCHISLRAFFIFLSWIQLLYVLQWDECDK” it is 47800. On to “MFKSVFCLFSVLSFLLFHACFIYHSFFSFLFLLMMKLLLWLCATFATKWLFFC”, for which the “transcriptional activation domain activity” value was found to be 69500. As for “MFLCCVCIEAQARILYLCCLYKLLTFYSFYYFYHSYFLLILNFFLLTILHALC”, the “transcriptional activation domain activity” value stood at 74000. The same measure for “MFLCFFHVFMLYLCHYVIVMLIYFLIYFMLFLLFMFLNTILQYEFLILHFCFI”: 47500.

Turning to “MFLCLQFRYLFCCGLKHWLRWGDALCLRVLMQGRCCWCGKRKFMLSVSILSWR”, the “transcriptional activation domain activity” value was found to be 53600.

Take “MFLEGVLQFVFFFFFFFPVYLSTFIFKFLAVGFLGSYLFLLVQLMQLIHSLIL”: the “transcriptional activation domain activity” value was 31900. Turning to “MFLFIYFVCVCVFSLSLLWDGVSGWVLFVLDWIGLIGGMCVWAYIIIFYEFLV”, the “transcriptional activation domain activity” value worked out at 63200. As to “MFLFLFLFVFLFVFLFLFLFLFLFLFLFLFMFPFLFPFLFPFPFPFPFPVLVL”, the “transcriptional activation domain activity” value came to 52700. The same measure for “MFLFVFSLVCIFYYCCYLLLLLLSSWLYSQQFVLFWSLTVHISCCPSFFLNES”: 37400; for “MFLGFFFLFFYLFIMDHILDFWLLLRIIILIFAYSHCSFLRTLILFFRINFFF”: 69000; for “MFLKSELHFNEPLQHILISFIFLSCLSNLALMIFSVVYKVYILLALIMLVYAN”: 51900. The same measure for “MFLLAFCIQAEYQLKLLYMFFYFFCSYVSSLIVFVSYFGVLVVLAGLNCFFTY”: 50300; for “MFLLFRSPCLLVLYIFWVGQSGVGLRGVGVHHFFFFFFSLLAALLLFCLCGAI”: 29400; for “MFLLFSLCVDFKGVLGGWLLFFFLLAFDGFTRLLWGDVICFFFYLLLFATTHV”: 57600. The same measure for “MFLLLKYDFSLTDLLRILLRLNMFPILLSFIMDRPYTSYTLPWLISFWYLVFF”: 66500. Turning to “MFLLVLYPILHLLFLPCKYQYFQIFIRLLSQLPLLFFFCNTFWFFSTSVFFLN”, the “transcriptional activation domain activity” value is 69600. The figure for “MFLPFSLSINHLPSLLLQPFILSLILLLFFLCLLHRLFPFLLQFFPFLFQFLS” is 50100; for “MFLPIVPFMLMLLRLLRLLRLLMLLMLLMLLPLFLFLFLLVMLCLFPLILLLL” it is 56200; for “MFLSTVMTRSICTFIFVEFELHGDAKSLCCGGLCRFCRLCSKVGVNYYSPCWW” it is 73000. The figure for “MFLTLLLGISLLPSLVIVYHLPHSLSFFFPPFLPFLLLPSILFLPGPFLRTAR” is 64000; for “MFLVLGWMFAHFVTVSCWPLLLWHVFFWCCLTGASEAELFIPPFIFRLPILSS” it is 74400; for “MFLYISLIFTLYYSTFPPPPPHPTSYLAIFLFLKLPWLFFSFSTSFSFTFFFW” it is 58400. The figure for “MFLYSHPPLHPNVFLPPPSLFICTMLQLVFYRPSSVYLLLLLFWIYPPLFLLC” is 56400. Regarding “MFMDTLLFVFMHYGWTFFLNCCLWCFMISLCFWYVKFCLPIGCYILILCMWQG”, the “transcriptional activation domain activity” value came to 66200.

For “MFMGTLLLVFLHYDWAFFLDCCLWCFVISFCFCSVKFCLLVGCCILVLCNVAR”, the “transcriptional activation domain activity” value was 70200. The figure for “MFMGTLLLVFMDYGWAFFLDCYLWFFVTSLCFWYVKFCLLVGCCILVLCNVAW” is 31700; for “MFMGTLWLVIFHYGWAFFLDYCVWYFMISLCFWCEVCLPVLLPAFHVCCLLWC” it is 52400. In the case of “MFMKHGDVSLGYEVCFCILIIITFGLSFFFFFFFHFFLFFHFWLFVSLLFFSD”, the “transcriptional activation domain activity” value stood at 41900. Turning to “MFMSTLLLVFIHYGWAFFLGCCLWCFVISLCFWYVKLWLLVGCYILVLCDVAR”, the “transcriptional activation domain activity” value came out at 37400. The same measure for “MFMTELLWGPGVRRLFLVFLFFISFPSLIPFFLSCLSFCTLLISLLCSFGTCA”: 38500; for “MFPFVFLSSFLSCFRLYSFNTCYIFSLILLCWYTFLLSYNGSLFCYPMIVYFL”: 70400; for “MFPGLQYTLLCIHLSCDFIICCRAFLPYYLCFSHYFPVLMCPVSPVLILVWFI”: 53600. The figure for “MFPYSWFRLLFRLLFLWPFLLFQLLFPWPTTLLILWPFRLLILWPIRLLILWP” is 73200; for “MFQAKLLQHMCDLHTNSGDGELKTLLTEILRMLLVTYIMAHVLTIERDTVHSV” it is 47600.

As to “MFQIHFLLFFFFFFSFFLLLLCFDVSILEVYFYKLLLFSFFFMMIVDLFFLFL”, the “transcriptional activation domain activity” value was determined as 60300. With “MFRLLEESFRYEPFVTFGLAVFACYFALIALNVVYYYYLFHFLWFCSYAFLAL”, the “transcriptional activation domain activity” value is 51600. The figure for “MFRPYSKFVLPSFFDIVLIYIFQEFGREALIWCQLCLQRVLPFLGLYHMGEML” is 38500; for “MFSCLLFLAYLPAISLIPCDCFWVFFFFFFLGCVKTRVLYLFFFFLCCSWFFY” it is 47400; for “MFSFSFPLFLSPLPISLFFLPFALSYSLLSSHLMADICLSSTRWLSSIFFSFF” it is 36100. The figure for “MFSFYMPTPPPFFPFPLVLFFFFFAVHRFHKISTFSTPFFFWIHFIVVLLFSF” is 58600; for “MFSHFNSSDLTSTFFFFMPVLGFILCPFFLLESMVCALVGWPCFLLSYCLPCL” it is 68900; for “MFSWLYLSYFQPLWRAFISLFIFLRTLHQSSPSIFFISIILLFICFPLAMFAV” it is 19200.

Turning to “MFSYFVFLLTIVTFFHLIISFCFVFRCHYIVLLLLLQNVFIFCLFAHHCYIHV”, the “transcriptional activation domain activity” value amounted to 31400.

For “MFTFNASSTINITLSILCYFIFLISVLLIRLYLNNSFMLFSLFFFFYFIYVIL”, the “transcriptional activation domain activity” value is 61200. Turning to “MFTGTLLVVFMHYGWSFFLNCCLGCLVISFCFWYVKLWLLIGRCILVLCIVAR”, the “transcriptional activation domain activity” value was found to be 69000.

“MFTGTLWLAFFLDCCLWWYMMFLCFWYEACLHVLLLGFHVYCLLWCMILSLSL”: the “transcriptional activation domain activity” value was 58200. As to “MFTLPSYSLFLSVHSFLIYPLPSCSFFFRISSPSIFTLSSCLSFPPVCPSLLF”, the “transcriptional activation domain activity” value was 71700. The same measure for “MFTRLLRYLHCSHFCFAIATRFRGWIGLFSPLYVSCFSQPFRFRYLGCLLFLF”: 52800; for “MFTRYLLLLLFAPLIYILGFFAASLSTHQPDYFYTWTRDSALVAQTNDTLLHD”: 30900; for “MFTWNRMKVLTVHAPCRTGGLARLFYNFCIKHPAMNIAWWIDEILFPLYHLAR”: 53100. The figure for “MFVCTSQSFIRSMGLYGFYLTGLMMTLLVVVVSLTFIQYPTIVILTLFHCLIS” is 44800; for “MFVFHMFVFYFVCLFFICLSFILYALFFMSYFYFLLVYFDICFLFLYLFLIFI” it is 15300; for “MFVGGWVMCLLFSKYSIYHLLAICALLFLLEYAFFFLLGIIHLLLLPTFFPFF” it is 37800. With “MFVHWAAVFCLFFFCLAIIHPYLPVAFFFCSIYYKPFFLRLPRFLFGFWFFFS”, the “transcriptional activation domain activity” value was found to be 47700. As for “MFVLYTSGWESLHFFFPSPLVSFVLCWVLTRSLYRFLEVWVAYSVCLLLFLHV”, the “transcriptional activation domain activity” value stood at 38600.

For the sequence “MFVNLFFSLLTPICTLCFFCNPLSLPLPFFPSHLFPLFSILPLLFFFFFLCCY”, the “transcriptional activation domain activity” value turned out to be 46200. The same measure for “MFVVLAMLLVILVVIFIFVIFVLIVLIFVILVMLLMLFFILIVIIAVIVLFFF”: 16700.

For “MFWIFYELFLDGQDIHRFSLLLVFFLFFPFASYTYSLLLLILYSVSPYGFLTS”, the “transcriptional activation domain activity” value came out at 38000. The figure for “MFWLSVSCYTYKIIRFYYADCGLVGVLKDQVQQCWIHLSYDLVYQYLPNLLNW” is 69400; for “MFWLTLLPSPCFTFFALCYKFFSFLVSIEFFKSCFLPLPTVSPNLLSSLALLL” it is 63800. The same measure for “MFYFLLLYQSIVFLPYIFFSQFLIWVWCGLGREPGWHLEHGVYRYRWVRILSI”: 39300. “MFYGFGSLSYGKGVTEFFFFSFFFFVASFISCFLFNFFSSAQFCCLFFHFVLI”: the “transcriptional activation domain activity” value amounted to 58300. For “MFYKLLIIYCFLFFRIYFLFHFFSYIYFFFFLFSISNFVISLPSNLFSHLLFF”, the “transcriptional activation domain activity” value was 47000. The same measure for “MFYNAQFVDCGPSALVMVLVLLAPYLPNPLQLRRAFTTRPPTVLFAVLGILET”: 61600.
